One molecule from patent US20210388116A1 (University of California, published 2021) can be followed below.

Where no end group is shown, it is not given here. The star is where a group is joined. Biotin = O=C1N[C@H]2[C@H](CS[C@H]2CCCCC(=O)*)N1

In experiment [1] the target is T1, copper oxidized LDL (CuOxLDL) (human, UniProt P04114 28-4563, limits assumed, copper-oxidized; enriched in oxidized phospholipid (OxPL); positions not stated).
T1 construct: A modified lipoprotein particle (protein plus lipid), prepared as in Gonen et al
As to the kind of experiment: chemiluminescent ELISA on plated antigen. How it is done:
Representative gel and blots from 20 repeats. (B) Representative results of AG23 (0.125 μg/mL) binding to BSA, OxCE-BSA, MDA-LDL and CuOxLDL (5 μg/mL). Four different OxCE-BSA preparations were tested in 12 independent experiments, with AG23 concentrations ranging from […]. […] Mean±SD; one-way ANOVA with multiple comparisons; ****, P<0.0001. (C) Competition ELISA: AG23 (0.01 μg/mL) was preincubated in the absence or presence of increasing concentrations of non-modified KLH or OxCE-KLH. Immune complexes were spun down, and supernatants were tested for binding to OxCE-BSA (5 μg/mL). Each data point is the mean of two independent assays in technical triplicates. (D) AG23 (1 μg/mL) binding to 10 μg/mL of non-modified G6K-OH and G6A-OH peptides, and the peptides subjected to the OxCE covalent modification. […] Mean±SD; n=6 for G6K and n=2 for G6A, each in technical duplicates; one-way ANOVA with multiple comparisons; **, P<0.01. (E-F) AG23 (0.15 μg/mL) was preincubated overnight with non-modified (250 μg/mL) or OxCE-modified (10-250 μg/mL) BSA or GDGDGK-OH peptide. […] After washes, AG23 binding to the wells was measured. […]
Monoclonal antibody binding to an array of epitopes was measured by chemiluminescent ELISA as described in Gonen et al. In brief, wells were coated with antigens at 5 μg/mL in PBS overnight at 4° C. […]

Experiment [2] has as its target T2, G6A/OxCE reaction product (biotin-GDGDGA peptide subjected to the OxCE modification procedure).
T2 construct: Negative control peptide in which the C-terminal Lys is replaced with Ala
T2 peptide: Biotin-GDGDGA
As to the kind of experiment: peptide ELISA on streptavidin plates. The protocol:
Biotinylated short peptides G6A-OH, G6K-OH (non-modified) or G6K-OxCE (modified with OxCE) were immobilized to streptavidin pre-coated plates (Eagle Biosciences, Amherst, N.H.), at 10 μg/mL in PBS, overnight at 4° C. After washing with PBS, AG23 was added at 1 μg/mL in 1% BSA-TBS and incubated at room temperature for 90 min. The remaining ELISA was completed as described above.

T1 sequence (P04114 28-4563 limits assumed): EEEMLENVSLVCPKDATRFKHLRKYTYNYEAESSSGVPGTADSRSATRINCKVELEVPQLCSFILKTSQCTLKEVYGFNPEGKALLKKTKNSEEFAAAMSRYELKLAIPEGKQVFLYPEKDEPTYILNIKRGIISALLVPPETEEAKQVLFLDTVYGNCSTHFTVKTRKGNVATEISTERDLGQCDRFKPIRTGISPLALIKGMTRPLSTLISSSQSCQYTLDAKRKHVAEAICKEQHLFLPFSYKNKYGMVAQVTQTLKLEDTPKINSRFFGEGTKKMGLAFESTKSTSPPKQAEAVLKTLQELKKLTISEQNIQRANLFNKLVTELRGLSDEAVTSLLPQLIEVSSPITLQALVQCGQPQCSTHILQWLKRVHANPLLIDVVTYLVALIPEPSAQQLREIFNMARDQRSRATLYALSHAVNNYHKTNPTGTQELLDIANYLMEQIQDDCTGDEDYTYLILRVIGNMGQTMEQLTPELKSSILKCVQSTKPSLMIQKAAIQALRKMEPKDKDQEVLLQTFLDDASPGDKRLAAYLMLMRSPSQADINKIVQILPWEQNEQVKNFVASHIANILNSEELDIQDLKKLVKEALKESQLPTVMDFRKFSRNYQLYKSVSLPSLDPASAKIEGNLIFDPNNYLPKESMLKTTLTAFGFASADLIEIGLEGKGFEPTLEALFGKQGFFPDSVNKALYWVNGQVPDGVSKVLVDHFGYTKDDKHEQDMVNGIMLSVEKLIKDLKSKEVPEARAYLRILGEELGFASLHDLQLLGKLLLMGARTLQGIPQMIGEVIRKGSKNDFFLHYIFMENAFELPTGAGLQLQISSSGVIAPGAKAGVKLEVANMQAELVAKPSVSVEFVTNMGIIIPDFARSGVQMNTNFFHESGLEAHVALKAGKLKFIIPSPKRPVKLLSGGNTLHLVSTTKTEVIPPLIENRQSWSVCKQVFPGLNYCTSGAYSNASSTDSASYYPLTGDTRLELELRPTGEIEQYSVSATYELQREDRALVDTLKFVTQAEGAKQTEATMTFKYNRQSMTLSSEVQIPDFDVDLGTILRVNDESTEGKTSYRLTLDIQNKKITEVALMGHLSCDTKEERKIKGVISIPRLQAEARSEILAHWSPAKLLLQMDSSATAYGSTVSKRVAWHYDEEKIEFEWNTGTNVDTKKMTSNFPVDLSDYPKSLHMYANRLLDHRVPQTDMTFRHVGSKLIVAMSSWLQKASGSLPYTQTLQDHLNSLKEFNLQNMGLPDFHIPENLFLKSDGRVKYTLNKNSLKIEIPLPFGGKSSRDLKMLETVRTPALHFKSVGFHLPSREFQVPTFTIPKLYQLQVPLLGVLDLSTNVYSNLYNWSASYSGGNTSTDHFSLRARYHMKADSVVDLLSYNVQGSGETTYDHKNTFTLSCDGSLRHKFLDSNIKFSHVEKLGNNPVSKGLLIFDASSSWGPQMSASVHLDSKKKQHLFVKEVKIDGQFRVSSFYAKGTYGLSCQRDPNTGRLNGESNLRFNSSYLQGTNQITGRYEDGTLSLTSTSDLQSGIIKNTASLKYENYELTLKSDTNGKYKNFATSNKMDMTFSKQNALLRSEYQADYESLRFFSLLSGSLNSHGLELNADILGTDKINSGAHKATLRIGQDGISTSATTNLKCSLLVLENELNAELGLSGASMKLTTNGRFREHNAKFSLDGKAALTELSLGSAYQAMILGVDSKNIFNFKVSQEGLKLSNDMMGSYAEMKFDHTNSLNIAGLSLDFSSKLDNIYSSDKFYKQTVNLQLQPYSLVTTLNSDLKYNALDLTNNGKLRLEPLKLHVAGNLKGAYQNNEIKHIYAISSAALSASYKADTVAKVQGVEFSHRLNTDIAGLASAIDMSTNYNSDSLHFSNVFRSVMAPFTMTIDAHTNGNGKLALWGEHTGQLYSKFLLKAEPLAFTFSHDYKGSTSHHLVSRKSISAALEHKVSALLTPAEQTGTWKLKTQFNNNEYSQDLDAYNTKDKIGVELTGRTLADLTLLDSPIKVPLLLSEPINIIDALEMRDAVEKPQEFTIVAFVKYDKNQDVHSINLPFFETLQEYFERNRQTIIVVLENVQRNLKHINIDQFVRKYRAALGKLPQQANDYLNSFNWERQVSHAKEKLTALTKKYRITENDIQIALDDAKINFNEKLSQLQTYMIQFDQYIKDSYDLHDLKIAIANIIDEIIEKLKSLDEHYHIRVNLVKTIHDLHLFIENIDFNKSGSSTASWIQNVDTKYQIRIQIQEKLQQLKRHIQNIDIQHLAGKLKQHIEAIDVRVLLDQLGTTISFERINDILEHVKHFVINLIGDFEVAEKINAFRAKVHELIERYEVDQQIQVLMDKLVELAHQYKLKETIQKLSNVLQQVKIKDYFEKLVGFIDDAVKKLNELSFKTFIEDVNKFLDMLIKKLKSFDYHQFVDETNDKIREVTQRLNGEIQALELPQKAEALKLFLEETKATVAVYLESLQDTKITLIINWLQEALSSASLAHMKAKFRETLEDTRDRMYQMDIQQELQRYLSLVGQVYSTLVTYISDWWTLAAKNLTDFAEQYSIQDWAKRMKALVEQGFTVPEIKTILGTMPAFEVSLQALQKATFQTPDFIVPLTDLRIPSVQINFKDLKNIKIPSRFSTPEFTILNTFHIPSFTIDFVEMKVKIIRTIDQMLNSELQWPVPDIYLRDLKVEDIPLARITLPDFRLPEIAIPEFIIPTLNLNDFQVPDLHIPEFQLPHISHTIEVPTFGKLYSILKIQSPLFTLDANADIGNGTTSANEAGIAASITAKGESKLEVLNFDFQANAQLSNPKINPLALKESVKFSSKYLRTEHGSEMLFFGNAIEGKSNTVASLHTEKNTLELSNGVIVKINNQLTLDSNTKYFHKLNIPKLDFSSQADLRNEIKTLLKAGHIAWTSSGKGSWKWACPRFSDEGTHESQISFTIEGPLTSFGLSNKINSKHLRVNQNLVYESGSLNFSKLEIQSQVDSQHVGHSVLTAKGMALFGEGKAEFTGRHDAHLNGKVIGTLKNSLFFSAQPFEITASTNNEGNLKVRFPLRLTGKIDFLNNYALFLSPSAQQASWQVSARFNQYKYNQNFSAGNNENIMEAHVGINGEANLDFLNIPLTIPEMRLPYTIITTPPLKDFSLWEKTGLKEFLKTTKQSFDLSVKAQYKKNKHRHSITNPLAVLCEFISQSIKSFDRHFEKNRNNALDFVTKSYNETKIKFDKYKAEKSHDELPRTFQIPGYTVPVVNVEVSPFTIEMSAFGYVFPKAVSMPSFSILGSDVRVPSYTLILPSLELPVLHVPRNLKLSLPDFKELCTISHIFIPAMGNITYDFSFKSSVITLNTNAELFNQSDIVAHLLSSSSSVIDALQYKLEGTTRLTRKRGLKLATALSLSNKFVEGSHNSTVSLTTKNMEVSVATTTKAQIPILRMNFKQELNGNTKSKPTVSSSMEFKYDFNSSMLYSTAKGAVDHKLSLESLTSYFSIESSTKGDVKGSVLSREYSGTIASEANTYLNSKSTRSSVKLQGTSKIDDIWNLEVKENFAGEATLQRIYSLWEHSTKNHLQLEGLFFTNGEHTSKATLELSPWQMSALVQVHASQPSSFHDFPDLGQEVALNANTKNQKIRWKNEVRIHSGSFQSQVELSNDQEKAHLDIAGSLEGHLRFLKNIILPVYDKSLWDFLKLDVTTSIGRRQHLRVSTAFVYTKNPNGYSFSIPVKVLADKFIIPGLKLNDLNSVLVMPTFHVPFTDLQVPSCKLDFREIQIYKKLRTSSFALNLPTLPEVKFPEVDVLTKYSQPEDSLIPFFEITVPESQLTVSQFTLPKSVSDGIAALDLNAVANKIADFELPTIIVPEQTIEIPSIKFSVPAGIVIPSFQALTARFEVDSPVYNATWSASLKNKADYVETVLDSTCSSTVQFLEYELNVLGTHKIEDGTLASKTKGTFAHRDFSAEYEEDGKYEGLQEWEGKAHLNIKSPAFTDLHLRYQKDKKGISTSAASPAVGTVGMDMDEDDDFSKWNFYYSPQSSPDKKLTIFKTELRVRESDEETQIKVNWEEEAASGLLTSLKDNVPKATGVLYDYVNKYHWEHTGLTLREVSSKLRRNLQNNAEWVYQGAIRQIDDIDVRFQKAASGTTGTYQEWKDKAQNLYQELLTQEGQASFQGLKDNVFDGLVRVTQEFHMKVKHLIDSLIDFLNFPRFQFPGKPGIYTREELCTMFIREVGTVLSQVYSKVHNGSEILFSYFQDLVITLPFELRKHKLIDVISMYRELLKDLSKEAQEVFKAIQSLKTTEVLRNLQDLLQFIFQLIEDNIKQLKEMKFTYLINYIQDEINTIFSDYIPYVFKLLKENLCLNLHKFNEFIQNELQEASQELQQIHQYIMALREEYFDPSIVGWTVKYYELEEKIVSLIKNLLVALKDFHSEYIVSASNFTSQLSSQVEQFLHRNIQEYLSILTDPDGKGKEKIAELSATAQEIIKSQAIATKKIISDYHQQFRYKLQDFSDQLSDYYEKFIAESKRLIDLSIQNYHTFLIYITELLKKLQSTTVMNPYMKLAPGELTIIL

B1: monoclonal Ab (mAb) AG23 (antibody, mouse IgG1, kappa, V domains shown)
VH: EVQLQQSGPELVKPGASVKISCKASGYSFTGYYMNWVRQSPEKNLEWIGEINPYTGGTTYNQKFKARATLTVDKSSSTAYVQLKSLTSEDSAVYFCVSWDYDLDYWGQGTTLTVSS
VL: QIVLTQSPAFMSASPGEKVTMTCSASSSVSYMHWYQQKSGTSPKRWIYATSKVASGVPARFSGSGSGTSYSLTISSMEAEDAATYYCLQWSSNPYTFGGGTKLEIKR
notes: Murine hybridoma IgG purified over Protein A/G; Used biotinylated in some sandwich ELISAs; also called Clone 23; colony #23
Take B1: the binding result is recorded as “no binding (tested: AG23 0.125 µg/mL; antigen 5 µg/mL)” in experiment [1] and “no binding (tested: AG23 1 µg/mL; peptide 10 µg/mL)” in experiment [2].
